Assay results as given in PMC9470164, “Membrane-mediated dimerization potentiates PIP5K lipid kinase activity” (eLife, 2022).

Key:
[1] = target: human PIP5KB (D51R), purified, unlabelled (human)
[2] = target: mouse PIP5KA, purified (mouse)
[3] = target: mNG-PIP5KB, recombinantly expressed and purified (human) (UniProt O14986)
[4] = target: mNG-PIP5KB, recombinantly expressed and purified (human) (UniProt O14986); experiment: single-molecule TIRF molecular brightness, photobleaching and tracking on supported lipid bilayers; purified mNG kinases at 100 pM; equilibrium membrane binding at ~600 kinases per field of view (0.2 kinases/µm^2); particles with intensity ≥8200 A.U. counted as dimers; membrane 96% DOPC, 4% PI(4,5)P2
[5] = target: mouse PIP5KA (D92R), purified (mouse)
[6] = target: the molecule itself; experiment: single-molecule TIRF molecular brightness on supported lipid bilayers; purified kinases labelled with Alexa488 by Sortase-mediated peptide ligation; membrane 96% DOPC, 4% PI(4,5)P2
[7] = target: the molecule itself; experiment: single-molecule TIRF molecular brightness and photobleaching on supported lipid bilayers; mNG-tagged kinase in HEK293 cell lysate diluted ~10,000-fold to ~10 pM (legend: 1 pM mNG-PIP4KB, 5 pM mNG-PIP5K); low surface density ~0.03 molecules/µm^2; membrane 96% DOPC, 4% PI(4,5)P2; 23°C

Q: For “human PIP5KB (D51R), purified, unlabelled (enzyme)”, which lipid kinase activity on supported lipid bilayers, reduction against wild-type PIP5KB [1] is on record?
A: 7 fold

Q: How did the reaction half-time of PI(4,5)P2 production at 5, 2.5 and 1 nM kinase (28 s, 49 s, 90 s) [2] turn out when mouse PIP5KA, purified (enzyme) was run?
A: 90 s

Q: Which effective phosphorylation rate constant per membrane-bound kinase (after the transition from slow to fast kinetics) (lipids/µm^2•s per kinase) [3] does the source give for “mNG-PIP5KB, recombinantly expressed and purified (from UniProt O14986 1-540) (enzyme)” here?
A: 0.0027

Q: What about the fold frequency of dimers against mNG-PIP5KB (D51R) [4] of the same molecule?
A: 5 fold

Q: What about the stoichiometry N [4] of the same molecule?
A: 2

Q: What about the time that dimers persist before photobleaching or dissociating [4] of the same molecule?
A: 1 to 2 s

Q: Which reaction half-time of PI(4,5)P2 production at 5, 2.5 and 1 nM kinase (71 s, 139 s, 270 s) [5] does the source give for mouse PIP5KA (D92R), purified (enzyme) here?
A: 270 s

B1: Alexa488-labelled human PIP4KB (Ax488-PIP4KB), purified (enzyme)
chain: GGGGGMSSNCTSTTAVAVAPLSASKTKTKKKHFVCQKVKLFRASEPILSVLMWGVNHTINELSNVPVPVMLMPDDFKAYSKIKVDNHLFNKENLPSRFKFKEYCPMVFRNLRERFGIDDQDYQNSVTRSAPINSDSQGRCGTRFLTTYDRRFVIKTVSSEDVAEMHNILKKYHQFIVECHGNTLLPQFLGMYRLTVDGVETYMVVTRNVFSHRLTVHRKYDLKGSTVAREASDKEKAKDLPTFKDNDFLNEGQKLHVGEESKKNFLEKLKRDVEFLAQLKIMDYSLLVGIHDVDRAEQEEMEVEERAEDEECENDGVGGNLLCSYGTPPDSPGNLLSFPRFFGPGEFDPSVDVYAMKSHESSPKKEVYFMAIIDILTPYDTKKKAAHAAKTVKHGAGAEISTVNPEQYSKRFNEFMSNILT
modifications: Alexa488 on the N-terminal amine of the ligated LPETGG peptide
notes: glycine stretch of his6-SUMO3-GGGGG-PIP4K2B left after SenP2 cleavage; human PIP4K2B isoform 2, 1-416aa; Surmise: Sortase ligation leaves Alexa488-LPET joined to GGGGG-PIP4K2B; also called Alexa488-PIP4K; PIP4K2B; source: E. coli BL21(DE3) Star, purified (Co2+ HiTrap Chelating, Superdex 200), labelled by Sortase-mediated peptide ligation; not shown: His6, N-terminal, cleaved; SUMO3, N-terminal, …
Q: Does B1 bind [6]?
A: binds

B2: mNeonGreen-tagged human phosphatidylinositol 5-phosphate 4-kinase type-2 beta (mNG-PIP4KB) (enzyme, UniProt P78356 1-416, looked up)
chain: MSSNCTSTTAVAVAPLSASKTKTKKKHFVCQKVKLFRASEPILSVLMWGVNHTINELSNVPVPVMLMPDDFKAYSKIKVDNHLFNKENLPSRFKFKEYCPMVFRNLRERFGIDDQDYQNSVTRSAPINSDSQGRCGTRFLTTYDRRFVIKTVSSEDVAEMHNILKKYHQFIVECHGNTLLPQFLGMYRLTVDGVETYMVVTRNVFSHRLTVHRKYDLKGSTVAREASDKEKAKDLPTFKDNDFLNEGQKLHVGEESKKNFLEKLKRDVEFLAQLKIMDYSLLVGIHDVDRAEQEEMEVEERAEDEECENDGVGGNLLCSYGTPPDSPGNLLSFPRFFGPGEFDPSVDVYAMKSHESSPKKEVYFMAIIDILTPYDTKKKAAHAAKTVKHGAGAEISTVNPEQYSKRFNEFMSNILT
notes: human phosphatidylinositol 5-phosphate 4-kinase type-2 beta (PIP4KB, PIP4K2B); Lentiviral vector with SFFV promoter; also called hPIP4K2B; source: HEK293T, transiently transfected, in clarified cell lysate (diluted); not shown: mNeonGreen, N-terminal, kept
Q: How did the “stoichiometry N” value [7] turn out when B2 was run?
A: 2
